18 molecules from patent publication US20150203577A1 (Chugai, published 2015) can be followed below.

Positions count from the first letter of the chain named. In names and notes the source's numbering stands.

T1: mouse FcγRIII extracellular domain, C-terminally His-tagged (mouse, UniProt P08508 31-215)
T1 construct: the whole entry is named; also called mFcγRIII; mFcgRIII
T1 chain: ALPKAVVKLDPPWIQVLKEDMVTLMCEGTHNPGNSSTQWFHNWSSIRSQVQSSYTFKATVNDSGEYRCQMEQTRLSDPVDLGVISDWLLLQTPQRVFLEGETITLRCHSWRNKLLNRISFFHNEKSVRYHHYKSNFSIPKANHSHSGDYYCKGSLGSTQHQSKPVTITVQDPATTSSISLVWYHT

T2: mouse FcγRII extracellular domain, C-terminally His-tagged (mouse, UniProt P08101 30-210)
T2 construct: the whole entry is named; also called mFcγRII; mFcgRII
T2 sequence: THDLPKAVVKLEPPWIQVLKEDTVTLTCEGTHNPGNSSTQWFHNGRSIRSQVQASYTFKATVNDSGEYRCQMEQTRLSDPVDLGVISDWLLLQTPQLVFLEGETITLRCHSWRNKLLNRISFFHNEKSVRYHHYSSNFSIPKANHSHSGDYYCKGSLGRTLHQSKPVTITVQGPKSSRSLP

T3: mouse FcγRIII (mouse, UniProt P08508 31-215)
T3 construct: Extracellular domain with C-terminal His tag, made in FreeStyle 293 cells; also called mFcγRIII; mFcgRIII
T3 chain: T1 chain

T4: mouse FcγRII (mouse, UniProt P08101 30-210)
T4 construct: Extracellular domain with C-terminal His tag, made in FreeStyle 293 cells; also called mFcγRII; mFcgRII
T4 sequence: T2 sequence

B1: H237-MB544/MRAL-k0 (antibody, mouse IgG1, kappa)
heavy: QVQLQESGPGLVKPSETLSLTCAVSGHSISHDHAWSWVRQPPGEGLEWIGFISYSGITNYNPSLQGRVTISRDNSKNTLYLQMNSLRAEDTAVYYCARSLARTTAMDYWGEGTLVTVSSAKTTPPSVYPLAPGSAAQTNSMVTLGCLVKGYFPEPVTVTWNSGSLSSGVHTFPAVLQSDLYTLSSSVTVPSSTWPSETVTCNVAHPASSTKVDKKIVPRDCGCKPCICEPNEVEMVFIFPPKPKDVLTITLTPKVTCVVVDISKDDPEVQFSWFVDDVEVHTAQTQPREEQFNSTFRSVSELPIMHQDWLNGKEFKCRVNSDAFPAPIERTISKTKGRPKAPQVYTIPPPKEQMAKDKVSLTCMITDFFPEDITVEWQWNGQPAENYKNTQPIMDTDGSYFVYSKLNVQKSNWEAGNTFTCSVLHEGLHNHHTEKSLSHSPGK
light: not shown
notes: copies: 2 + 2
B2: H237-MB546/MRAL-k0 (antibody, mouse IgG1, kappa)
heavy: B1 heavy with S294L, N320D, D322A
light: not shown
notes: copies: 2 + 2
B3: H237-MB549/MRAL-k0 (antibody, mouse IgG1, kappa)
heavy: B1 heavy with S294L, N320D
light: not shown
notes: copies: 2 + 2
B4: H237-MB547/MRAL-k0 (antibody, mouse IgG1, kappa)
heavy: B1 heavy with S294L
light: not shown
notes: copies: 2 + 2
B5: H237-MB548/MRAL-k0 (antibody, mouse IgG1, kappa)
heavy: B1 heavy with N320D
light: not shown
notes: copies: 2 + 2
B6: H237-MB545/MRAL-k0 (antibody, mouse IgG1, kappa)
heavy: B1 heavy with S294L, N320D, R330K
light: not shown
notes: copies: 2 + 2
B7: H237-MB723/MRAL-k0 (antibody, mouse IgG1, kappa)
heavy: B1 heavy with P230D, N231Y, V233E, M235D, D322A, R330K
light: not shown
notes: copies: 2 + 2
B8: H237-MB546/MRAL-k0 (antibody)
heavy: B1 heavy with S294L, N320D, D322A
light: not shown
notes: copies: 2 + 2
B9: H237-MB865/MRAL-k0 (antibody, mouse IgG1, kappa)
heavy: B1 heavy with M235L, K264D, Q291L, A323G, R330K
light: not shown
notes: copies: 2 + 2
B10: H237-MB864/MRAL-k0 (antibody, mouse IgG1, kappa)
heavy: B1 heavy with M235L, K264D, A323G
light: not shown
notes: '8239L' in r313c2 read as S239L; copies: 2 + 2
B11: H237-MB853/MRAL-k0 (antibody, mouse IgG1, kappa)
heavy: B1 heavy with M235L, Q291L, A323G, P327Y, R330K
light: not shown
notes: copies: 2 + 2
B12: H237-MB722/MRAL-k0 (antibody)
heavy: B1 heavy with P230A, N231Y, V233E, M235D, D322A, R330K
light: not shown
notes: copies: 2 + 2
B13: H237-MB861/MRAL-k0 (antibody, mouse IgG1, kappa)
heavy: B1 heavy with M235L, K264D, N320D, A323G, R330K
light: not shown
notes: copies: 2 + 2
B14: H237-MB528/MRAL-k0 (antibody, mouse IgG1, kappa)
heavy: B1 heavy with E229Q, M235E, S294L, R330K
light: not shown
notes: copies: 2 + 2
B15: H237-MB719/MRAL-k0 (antibody, mouse IgG1, kappa)
heavy: B1 heavy with M235Q, D322A, R330K
light: not shown
notes: copies: 2 + 2
B16: H237-MB855/MRAL-k0 (antibody, mouse IgG1, kappa)
heavy: B1 heavy with M235L, Q291L, A323G
light: not shown
notes: copies: 2 + 2
B17: H237-MB526/MRAL-k0 (antibody, mouse IgG1, kappa)
heavy: B1 heavy with E229Q, M235E, S294L, D322A, R330K
light: not shown
notes: copies: 2 + 2
B18: H237-MB541/MRAL-k0 (antibody)
heavy: B1 heavy with S294L, D322A
light: not shown
notes: copies: 2 + 2

The first experiment addresses T1, mouse FcγRIII extracellular domain, …. As to the kind of experiment: SPR Biacore T200, KD ratio. The source says: (§1) The antibody H chain variable region used was the variable region H237 (SEQ ID NO: 1) of the H chain VH3-IgG1 of the anti-IL-6 receptor antibody Fv4-IgG1 described in WO2009/125825. The antibody L chain commonly used was the L chain MRAL-k0 (SEQ ID NO: 2) of the anti-IL-6 receptor antibody tocilizumab. H237-MB476/MRAL-k0 and H237-MB515/MRAL-k0 were used as templates to introduce new alterations. These variants were expressed and purified by the method of Reference Example 1 and evaluated for their binding to mFcγRII and mFcγRIII by the method of Reference Example 2 using Biacore T200.
(§2) Each altered antibody was analyzed for its interaction with each Fcγ receptor prepared above using Biacore T100 (GE Healthcare Japan Corp.), Biacore T200 (GE Healthcare Japan Corp.), Biacore A100, or Biacore 4000. The running buffer used was HBS-EP+ (GE Healthcare Japan Corp.). The assay temperature was set to 25° C. The sensor chips used were chips prepared by immobilizing Protein L (ACTIGEN or BioVision) onto Series S Sensor Chip CM5 (GE Healthcare Japan Corp.) or Series S Sensor Chip CM4 (GE Healthcare Japan Corp.) by the amine coupling method.
(§3) In order to calculate the KD value of each altered antibody for FcγR, kinetic analysis was conducted according to the following method: first, the antibody of interest was captured onto any of these chips and allowed to interact with mFcγR diluted with a running buffer. For the obtained sensorgram, the assay results were globally fit into the 1:1 Langmuir binding model using Biacore Evaluation Software to calculate an association rate constant ka (L/mol/s) and a dissociation rate constant kd (1/s). From these values, the dissociation constant KD (mol/L) was calculated.
Turning to B1, the “relative mFcγRIII-binding activity (mIgG1 = 1)” value was determined as 3.2 fold.
On the same count and under the same terms, the figure for B2 is 5.6 fold; for B3 it is 5.4 fold.
Same read-out and setting: the figure for B4 is 4.5 fold.
B5: the “relative mFcγRIII-binding activity (mIgG1 = 1)” value was 3.9 fold.
Still for that read-out and setting: the figure for B6 is 2.7 fold.

For the next experiment, the target named is T2, mouse FcγRII extracellular domain, …. As to the kind of experiment: SPR Biacore T200, KD ratio.
Excerpt: as §1, §2, §3
As for B1, the “relative mFcγRII-binding activity (mIgG1 = 1)” value came to 276 fold and the “relative mFcγRII-binding activity (template H237-MB515/MRAL-k0 = 1)” value is at least 1.4 fold.
With B2, the “relative mFcγRII-binding activity (mIgG1 = 1)” value worked out at 158 fold.
B3: the “relative mFcγRII-binding activity (mIgG1 = 1)” value was 210 fold.
On to B4, for which the “relative mFcγRII-binding activity (mIgG1 = 1)” value stood at 170 fold.
On to B5, for which the “relative mFcγRII-binding activity (H237-mIgG1/MRAL-k0 = 1)” value is at least 350 fold, the “relative mFcγRII-binding activity (mIgG1 = 1)” value was 357 fold and the “relative mFcγRII-binding activity (template H237-MB515/MRAL-k0 = 1)” value is at least 1.4 fold.
For B6, the “relative mFcγRII-binding activity (mIgG1 = 1)” value came to 163 fold.

The target of the next experiment is T1, mouse FcγRIII extracellular domain, …. Nature of the experiment: SPR Biacore T200, KD ratio, template MB515.
Excerpt: as §1, §2, §3
On the technique in general: In SPR one partner is held on a chip, and binding of the other changes the refractive index at the surface.
Regarding B1, the “relative mFcγRIII-binding activity (template = 1)” value turned out to be 2.45 fold.
For the molecule B2, the “relative mFcγRIII-binding activity (template = 1)” value was determined as 4.28 fold.
The same measure, in the same setting: the figure for B3 is 4.11 fold; for B4 it is 3.43 fold.
The same measure, in the same setting: the figure for B5 is 2.99 fold; for B6 it is 2.02 fold.

Another experiment deals with T2, mouse FcγRII extracellular domain, …. As to the kind of experiment: SPR Biacore T200, KD ratio, template MB515.
Excerpt: as §1, §2, §3
For B1, the “relative mFcγRII-binding activity (template = 1)” value was 2.01 fold.
Still for that read-out and setting: the figure for B2 is 1.15 fold; for B3 it is 1.53 fold.
The same measure, in the same setting: the figure for B4 is 1.24 fold; for B5 it is 2.6 fold; for B6 it is 1.19 fold.

For a further experiment, the target named is T3, mouse FcγRIII. As to the kind of experiment: SPR (Biacore), antibody captured on Protein L.
In turn, B7 displayed a Kd of 645 nM.
On the same count and under the same terms, the figure for B8 is 50 nM.
The molecule B9 displayed a Kd of 84.4 nM. This Kd is about 1.7-fold higher than that of the molecule before.
On the same count and under the same terms, the figure for B10 is 77.6 nM; for B11 it is 249 nM.
The same measure, in the same setting: the figure for B12 is 341 nM; for B13 it is 117 nM.
The same measure, in the same setting: the figure for B14 is 19.3 nM; for B15 it is 122 nM; for B16 it is 248 nM.
B17: binding was put at a Kd of 33 nM. This Kd lies about 7.5-fold lower than the previous one.
Take B18: the Kd was 86.4 nM. Against the preceding molecule, the Kd is about 2.6-fold higher.

In the next experiment the target is T4, mouse FcγRII. As to the kind of experiment: SPR (Biacore), antibody captured on Protein L.
B7 had a Kd of 19 nM.
The same measure, in the same setting: the figure for B8 is 1.33 nM; for B9 it is 2.51 nM; for B10 it is 1.9 nM.
Still for that read-out and setting: the figure for B11 is 5.99 nM; for B12 it is 8.04 nM; for B13 it is 2.74 nM.
Same read-out and setting: the figure for B14 is 0.56 nM.
Regarding B15, the Kd is 2.98 nM. This Kd is about 5.3-fold higher than that of the molecule before.
The molecule B16 came in with a Kd of 5.81 nM.
B17 gave a Kd of 0.904 nM.
Turning to B18, the Kd is 2.04 nM.

A further experiment addresses T3, mouse FcγRIII. As to the kind of experiment: SPR (Biacore), KD of H237-mIgG1/MRAL-k0 / KD of variant. Here is the method:
as §2, §3
With B7, the “relative mFcγRIII-binding activity (mIgG1 = 1)” value worked out at 0.4 fold.
Same read-out and setting: the figure for B8 is 5.6 fold; for B9 it is 3.3 fold; for B10 it is 3.6 fold.
On to B11, for which the “relative mFcγRIII-binding activity (mIgG1 = 1)” value was determined as 1.1 fold.
On the same count and under the same terms, the figure for B12 is 0.8 fold.
As to B13, the “relative mFcγRIII-binding activity (mIgG1 = 1)” value worked out at 2.4 fold.
As for B14, the “relative mFcγRIII-binding activity (mIgG1 = 1)” value stood at 14.6 fold.
Consider B15, for which the “relative mFcγRIII-binding activity (mIgG1 = 1)” value worked out at 2.3 fold.
On the same count and under the same terms, the figure for B16 is 1.1 fold; for B17 it is 8.5 fold; for B18 it is 3.3 fold.

The target of a further experiment is T4, mouse FcγRII. The experiment is described as above. On the procedure: as §2, §3
On to B7, for which the “relative mFcγRII-binding activity (mIgG1 = 1)” value came out at 11 fold.
On the same count and under the same terms, the figure for B8 is 158 fold; for B9 it is 83.8 fold; for B10 it is 110 fold.
Still for that read-out and setting: the figure for B11 is 35 fold.
For the molecule B12, the “relative mFcγRII-binding activity (mIgG1 = 1)” value was found to be 26.1 fold.
The same measure, in the same setting: the figure for B13 is 76.8 fold.
Turning to B14, the “relative mFcγRII-binding activity (mIgG1 = 1)” value stood at 375 fold.
As to B15, the “relative mFcγRII-binding activity (mIgG1 = 1)” value was determined as 70.4 fold.
The same measure, in the same setting: the figure for B16 is 36.2 fold; for B17 it is 232 fold; for B18 it is 103 fold.

As a reminder, the Kd is the equilibrium constant for the complex coming apart. Read a high Kd as lower affinity.
